This test deals with Chikungunya virus (CHIKV) nonstructural protein 1 (nsP1) H37A mutant (chikungunya virus). Description: cryo-EM structure; nsP1-mut incubated with SAH and m7GpppAmU at 4 °C overnight; graphene-covered grids; refinement with C12 symmetry, 2.41 Å.

The term stoichiometry N denotes the number of molecules, sites or subunits per partner or assembly. The substance “Chikungunya virus (CHIKV) nonstructural protein 1 (nsP1) H37A mutant (enzyme)” came in with a stoichiometry N of 12.
